Reference: paper PMC8262862 (2021)

How the values were obtained:
Assay in all cases: ELISA
H3 HA = target: H3 HA
H8 HA = target: H8 HA
B-Phuket HA = target: B-Phuket HA
H1 HA = target: H1 HA
H14 HA = target: H14 HA
H10 HA = target: H10 HA
H4 HA = target: H4 HA
H5 HA = target: H5 HA
H2 HA = target: H2 HA
H13 HA = target: H13 HA
H6 HA = target: H6 HA
H7 HA = target: H7 HA
H9 HA = target: H9 HA

B1: S1V2-51 IgG (antibody, V domains shown)
VH: QVQLVESGGGVVQPGRSLRLSCVASGFTFRDSVMHWVRQAPGKGLEWVAVTSFDGGESYSADSVKGRFTISRDNSKSTLSLQMNILRPEDTGVYYCARDRGGLDVWGQGTTVTVSG
VL: DIVMTQSPESLAVSLGERATINCKSSQSVSFGSSDKNYLGWYQQKPGQPPKLLINWASTRESGVSDRFRGTGSGTDFTLTISSLQAEDAAVYYCHQYYTPPYSFGQGTKLEIK
B1 gave a Kd (H3 HA) of 260 pM, a Kd (H8 HA) of 410 pM and a Kd (B-Phuket HA) greater than 100000 pM. It also gave a Kd (H1 HA) greater than 100000 pM, a Kd (H14 HA) greater than 100000 pM and a Kd (H10 HA) of 420 pM. For the same binder, the Kd (H4 HA) was 210 pM, the Kd (H5 HA) was greater than 100000 pM and the Kd (H2 HA) was greater than 100000 pM. The Kd (H13 HA) was greater than 100000 pM, the Kd (H6 HA) was 84000 pM and the Kd (H7 HA) was 210 pM. It also gave a Kd (H9 HA) of 210 pM.
